A value given as a limit tells only on which side of the number the result lay.

The target of this assay is human Mdm2 (1-125) (human). Briefly: fluorescence polarisation. On the technique in general: In fluorescence polarisation assays a small probe gives low polarisation when free and higher when bound to something large.
Chain of human Mdm2 (1-125) (human) (Q00987 1-125): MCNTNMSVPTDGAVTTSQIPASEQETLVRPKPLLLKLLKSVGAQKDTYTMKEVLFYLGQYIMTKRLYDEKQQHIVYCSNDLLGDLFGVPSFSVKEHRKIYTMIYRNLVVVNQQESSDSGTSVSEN
A word on the Kd: it is the constant that tells how readily two partners part at equilibrium. “azide-ATSP-7041 (MP-081) with Cba10 substituted with Ala (peptide)”: the Kd amounted to 115 nM. “azide-ATSP-7041 (L1D, E5D, A8D) (peptide)” gave a Kd of 5 nM. “MP-793 (all-D di-alkyne stapled analog of ^dPMI-δ(5-12 staple)) (peptide)” registered a Kd of under 1 nM. The same measure for “MP-444: Ac-K(N3)-TF(X)EYWAQ(Cba)(X)EAFAAF-NH2 (peptide)”: 1.5 nM.

Regarding “azide-ATSP-7041 (MP-081) with Cba10 substituted with Leu (peptide)”, the Kd amounted to 56 nM.

azide-ATSP-7041 (MP-081) (peptide): the Kd worked out at 5 nM. The same measure for azide-ATSP-7041 (MP-081) E5P (peptide): 7800 nM; for “azide-ATSP-7041 (L1N, E5N, A8N, S12N, A13N, A14N) (peptide)”: 15 nM.

These data come from doi:10.1101/2023.02.25.530030.
